The values below come from PMC3798268, “A Minimal Nitrogen Fixation Gene Cluster from Paenibacillus sp. WLY78 Enables Expression of Active Nitrogenase in Escherichia coli”.

The target in data set [1] is T1, E. coli sigma70-RNAP holoenzyme (Escherichia coli, UniProt P0A7Z4;P0A8V2;P0A8T7;P0A800;P00579 1-329;1-1342;1-1407;2-91;1-613). In words: EMSA; EMSA: Roche DIG Gel Shift Kit, 0.03 pmol labeled DNA, buffer not stated; footprinting: binding 30 min at 25 C, DNase I 40 s at 37 C. Particulars: protein: commercial; chain copies: 2;1;1;1;1; blunt. On the technique in general: In EMSA bound probe runs differently from free probe, usually more slowly.

In data set [2] the target is T1, E. coli sigma70-RNAP holoenzyme. Nature of the data set: EMSA; reported to bind more tightly than Paenibacillus sigma70; EMSA: Roche DIG Gel Shift Kit, 0.03 pmol labeled DNA, buffer not stated; footprinting: binding 30 min at 25 C, DNase I 40 s at 37 C. As to conditions: protein: commercial; chain copies: 2;1;1;1;1; label: digoxigenin (DIG Gel Shift Kit); blunt.

B1: scrambled 39 bp DNA (dsDNA)
DNA 1: GTACGGAGTATCCAGCTCCGTAGCATGCAAATCCTCTGG
DNA 2: CCAGAGGATTTGCATGCTACGGAGCTGGATACTCCGTAC
B1: the binding result in data set [1] is listed as “no binding”.

B2: nifB promoter 50 bp (-47 to +3) (dsDNA)
DNA 1: GGAGAAGTGAATTGACTGTATTTGTCCCTGTCTCTAAGATGTAATTATAT
DNA 2: ATATAATTACATCTTAGAGACAGGGACAAATACAGTCAATTCACTTCTCC
On to B2, for which the binding result in data set [2] is reported as “binds”.
